Source: article PMC11333492

Key:
[1] = biological target: B/Memphis/13/2003 FluPol PA-NE332-333AA (PB2, PA mutant, PB1-luc2); conditions: parent: est. 100; read off a plot
[2] = biological target: B/Memphis/13/2003 FluPol PA-NENF332-335AAAA (PB2, PA mutant, PB1-luc2); conditions: parent: est. 100; read off a plot
[3] = biological target: B/Memphis/13/2003 FluPol PA-NY360-361AA (PB2, PA mutant, PB1-luc2); conditions: parent: est. 100; read off a plot
[4] = biological target: FluPolB (influenza B/Memphis/13/2003 polymerase heterotrimer) (influenza B/Memphis/13/2003) (UniProt Q5V8Z9); test: mass photometry

Work on “B/Memphis/13/2003 FluPol wild type (PB2, PA, PB1-luc1) for the split luciferase assays (from UniProt Q5V8Z9;Q5V8Y6;Q5V8X3) PA:N332A; PA:E333A” yielded a percent of parent [1] of 33 % FluPol-WT.
“B/Memphis/13/2003 FluPol wild type (PB2, PA, PB1-luc1) for the split luciferase assays (from UniProt Q5V8Z9;Q5V8Y6;Q5V8X3) PA:N332A; PA:E333A; PA:N334A; PA:F335A” gave a percent of parent [2] of 9 % FluPol-WT.
Substance “B/Memphis/13/2003 FluPol wild type (PB2, PA, PB1-luc1) for the split luciferase assays (from UniProt Q5V8Z9;Q5V8Y6;Q5V8X3) PA:N360A; PA:Y361A” has a percent of parent [3] of 6 % FluPol-WT.
“FluPolB (influenza B/Memphis/13/2003 polymerase heterotrimer) (from UniProt Q5V8Z9;Q5V8Y6;Q5V8X3) (complex)” was tested, and the percent dimers [4] was 14%.
